Assay results published in the supplement of paper PMC10567573.
± gives the standard deviation.

Assay: protein stability index of a GFP-peptide fusion (GPS, HEK-293T) (PSI 1-6); higher = more stable
[1] = treatment: DMSO, c terminus: a fixed tail appended
[2] = treatment: MLN4924 1 uM, 8 h, c terminus: a fixed tail appended
[3] = treatment: DMSO, c terminus: native
[4] = treatment: MLN4924 1 uM, 8 h, c terminus: native
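Note: 24-mer peptide tiles fused after GFP, lentivirally expressed, FACS-sorted into six equal bins by GFP/DsRed ratio, decoded by Illumina sequencing, PSI is the read-weighted mean bin number.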

| Sequence | protein stability index [1] | protein stability index [2] | protein stability index [3] | protein stability index [4] |
| --- | --- | --- | --- | --- |
| SSVEDLKAKFCSTVANDVMLRTGL [NETO1] | 2.97 ± 0.14 | 3.07 ± 0.14 |  |  |
| SSVTAAVSGLLVGYELGIISGALL [SLC2A12] | 2.8 ± 0.2 | 2.82 ± 0.18 |  |  |
| STPVRREVTDKEQEFAARAAKQLE [EPB41L3] | 5.28 ± 0.2 | 5.27 ± 0.21 |  |  |
| STQLEMQLEKPKPVKPVTFSTGIK [MNAT1] | 4.28 ± 0.16 | 4.43 ± 0.22 |  |  |
| SVKLRGSSLFMDTEKSGKREFDVR [WEE1] | 3.86 ± 0.36 | 3.94 ± 0.095 |  |  |
| SVRMRRAEKSVAPSNTGSRTTSVR [NEK8] | 4.62 ± 0.24 | 4.6 ± 0.26 |  |  |
| SVSSCDQEHQSALEEAKQPKNDNV [SMOC2] | 5.38 ± 0.21 | 5.64 ± 0.082 |  |  |
| SYFSGQGSDTGASLKLASSELERL [JUNB] | 4.182 ± 0.04 | 4.427 ± 0.038 |  |  |
| SYLIEKVKRKKNVLRLCCKKLKIF [PRAME] | 3.23 ± 0.36 | 3.22 ± 0.28 |  |  |
| SYPMRRSYRYKLLNWAYQQVQQNK [STEAP1] | 2.34 ± 0.19 | 2.36 ± 0.25 |  |  |
| TASDGGDPLRSGTVLVSVTVFDAN [PCDHGA10] | 2.31 ± 0.52 | 2.13 ± 0.091 |  |  |
| TASSLVKINLQGDIVDRGSTNLGV [ADD1] | 3.36 ± 0.68 | 3.36 ± 0.25 |  |  |
| TDHQTPPTSPVQGTTPQISPSTLI [HDAC6] | 4.93 ± 0.16 | 4.86 ± 0.27 |  |  |
| TDILDLENQRENLEQPFLSVFKKG [PLEKHN1] | 4.52 ± 0.07 | 4.24 ± 0.21 |  |  |
| TDILPQMITLSEAYIQIWKRRDND [USP39] | 2.82 ± 0.25 | 2.79 ± 0.14 |  |  |
| TDQAIFYAVTPLPWCPHLVAVCPI [HDAC6] | 3.09 ± 0.61 | 3.22 ± 0.41 |  |  |
| TDRDEGANGEVTYSFRKLPDTQLL [PCDHGA10] | 4.44 ± 0.13 | 4.41 ± 0.22 |  |  |
| TEDFWRMLWEHNSTIVVMLTKLRE [PTPRD] | 2.21 ± 0.25 | 2.23 ± 0.27 |  |  |
| TEEDDGFVDILESDLKDDDAVPPG [CDC25B] | 5.46 ± 0.27 | 5.4 ± 0.12 |  |  |
| TEELTVIKSSLKDEYQYSFWDLFR [SLC2A12] | 2.38 ± 0.25 | 2.29 ± 0.35 |  |  |
| TELRRSGSSRSPGSKARAEGRGPV [PLEKHN1] | 4.84 ± 0.31 | 4.96 ± 0.52 |  |  |
| TEQAVALLRDRTGQQSDTAQLELY [SCARA5] | 4.61 ± 0.16 | 4.42 ± 0.25 |  |  |
| TETPLEGDFAWERVRGLGLPKLYL [CDKN1A] | 2.18 ± 0.15 | 2.57 ± 0.34 |  |  |

| Sequence | protein stability index [1] | protein stability index [2] | protein stability index [3] | protein stability index [4] |
| --- | --- | --- | --- | --- |
| TFGAAACSIGFAVRYLNAYTGIVL [POP5] | 3.18 ± 0.57 | 3.45 ± 0.15 |  |  |
| TFNRWGTLLAVGCNDGRIVIWDFL [RBBP5] | 2.35 ± 0.41 | 2.18 ± 0.27 |  |  |
| TFPASVLAPVPTHSTVSELSRSPV [DUSP5] | 3.92 ± 0.082 | 4.14 ± 0.39 |  |  |
| TGESSEPEAKVLHTKRLYRAVVEA [SMG5] | 3.65 ± 0.33 | 3.63 ± 0.24 |  |  |
| TGGSADLFGGFADFGSAAASGSFP [CLINT1] | 3.69 ± 0.35 | 3.62 ± 0.24 |  |  |
| TGLMVSLLCLLHFSIVSVAAHLAL [RTN2] | 3.27 ± 0.11 | 2.87 ± 0.27 |  |  |
| TGMPMMPQQPVMFAQPMMRPPFGA [SNAP91] | 2.97 ± 0.064 | 2.67 ± 0.33 |  |  |
| TIGVEFATRSIQVDGKTIKAQIWD [RAB11A] | 3.04 ± 0.2 | 3.08 ± 0.32 |  |  |
| TIIFTAAREGRETLKCLSHHVADA [TOR1AIP2] | 2.42 ± 0.13 | 2.62 ± 0.2 |  |  |
| TIQQEKLLAEKEEKLQKEQKELQD [SASS6] | 5.52 ± 0.31 | 5.54 ± 0.23 |  |  |
| TKKRKLGKNPDVDTSFLPDRDREE [FAM50A] | 5.18 ± 0.14 | 5.23 ± 0.41 |  |  |
| TKQRIQDQKVPYIFRDNQWVGFDD [CHIT1] | 3.49 ± 0.47 | 3.69 ± 0.4 |  |  |
| TLHNAQTQEPIFTFTASFSGKVFP [TRIM15] | 2.49 ± 0.23 | 2.56 ± 0.3 |  |  |
| TLRQKAEADKNDKAVKDLVVLLFE [HSP90AB1] | 3.07 ± 0.39 | 3.12 ± 0.27 |  |  |
| TLSFIVDGQYMGVAFRGLKGKKLY [SPSB1] | 2.27 ± 0.46 | 2.36 ± 0.36 |  |  |
| TLTELRRTVQSLEIDLDSMRNLKA [KRT18] | 3 ± 0.5 | 3.06 ± 0.51 |  |  |
| TLVGNVAQDLGLKMTDLLSRRLQL [PCDHGC5] | 2.58 ± 0.66 | 2.6 ± 0.57 |  |  |
| TLYANNVQRVMAQALGIPATECEF [LPCAT4] | 2.49 ± 0.22 | 2.58 ± 0.19 |  |  |
| TMLSHYRPFYVNKGNGIGSNEAP [TRIM29] |  |  | 3.1 ± 0.24 | 3.14 ± 0.25 |
| TMQSMFAKNFHVKAVMKTSVLLSW [PTPRD] | 2.48 ± 0.73 | 2.94 ± 0.42 |  |  |
| TPPASPPPSVLISKNEVGIFTTPN [KMT2E] | 4.03 ± 0.18 | 4.06 ± 0.1 |  |  |
| TPPPGPASAQPLPAPEAAHTTGPT [TFE3] | 5.38 ± 0.27 | 5.38 ± 0.084 |  |  |
| TPVVTESTATSITLTWDSGNPEPV [PTPRD] | 4.21 ± 0.057 | 4.16 ± 0.33 |  |  |

| Sequence | protein stability index [1] | protein stability index [2] | protein stability index [3] | protein stability index [4] |
| --- | --- | --- | --- | --- |
| TQDGKEQPELPCAMAMGTPSTTER [PXN] | 5.21 ± 0.27 | 5.18 ± 0.3 |  |  |
| TQIPADEDTQTDADSSAQAAAQAP [TAF7L] | 5.49 ± 0.072 | 5.51 ± 0.15 |  |  |
| TQPGIRRARDKALSGGKRKETLV [NET1] |  |  | 4.29 ± 0.3 | 4.15 ± 0.38 |
| TRRHPGGSRVISHYAGQDATDPFV [FADS1] | 3.7 ± 0.33 | 3.86 ± 0.089 |  |  |
| TTTTFPMSNHTRERVTVAKLTLEN [STK38L] | 3.52 ± 0.26 | 3.5 ± 0.18 |  |  |
| TTYDRRSSQERKFMEERELLGQDE [RSPH3] | 5.34 ± 0.2 | 5.39 ± 0.23 |  |  |
| TWEQTFQELIQEAKPRATWTLKLD [RTP4] | 2.02 ± 0.24 | 2.25 ± 0.33 |  |  |
| TWKQELLKLMDRHKKDCAREKPFK [ZNF75A] | 2.69 ± 0.25 | 2.88 ± 0.3 |  |  |
| TYLVSERLEREERNQTQVLRQQQD [FAF2] | 4.97 ± 0.21 | 4.89 ± 0.072 |  |  |
| TYNTKVYKMFASRRKQRYWPFSMD [LOXL2] | 2.32 ± 0.51 | 1.89 ± 0.15 |  |  |
| VAACAQTVVSLAAAGQPTPPTSPE [CEBPD] | 5 ± 0.78 | 5.29 ± 0.33 |  |  |
| VAAGRTQKAGVTRSGRLILWEAPP [NEK8] | 2.85 ± 0.24 | 2.94 ± 0.24 |  |  |
| VAEAFRALASAQCPQFGIPRKRLK [SPOPL] | 2.73 ± 0.42 | 3 ± 0.34 |  |  |
| VAGDCLDEKQCKQCANKVLQHMKA [LRRC59] | 3.74 ± 0.14 | 3.9 ± 0.43 |  |  |
| VAGGVAVAAIALILGVAFLVRKK [CEND1] |  |  | 4.02 ± 0.29 | 4.16 ± 0.097 |
| VAKKTPTKRSTLIISGVSKVPIAQ [C2CD2L] | 3.02 ± 0.33 | 3.24 ± 0.33 |  |  |
| VCQALAQVDGGANFSVDRWERKEG [CPOX] | 4.41 ± 0.14 | 4.1 ± 0.43 |  |  |
| VDEYFRQPVVDTFDIRILMAKSVK [CARM1] | 2.47 ± 0.46 | 2.64 ± 0.63 |  |  |
| VDITPYLDQLDESLRDKVLQLQKG [INTS3] | 3.79 ± 0.071 | 4.06 ± 0.1 |  |  |
| VDREKGLSAEPGWQAKREEEEEEE [CHGA] | 5.36 ± 0.48 | 5.7 ± 0.18 |  |  |
| VDRNTRPGPQDPEESASRQRFGEA [ELOA2] | 4.92 ± 0.25 | 5.14 ± 0.14 |  |  |
| VEADINGLRRVLDELTLARTDLEM [KRT15] | 3.29 ± 0.27 | 3.33 ± 0.39 |  |  |
| VEATVKPELTAALRDIRAQYESIA [PRPH] | 3.48 ± 0.16 | 3.4 ± 0.22 |  |  |

| Sequence | protein stability index [1] | protein stability index [2] | protein stability index [3] | protein stability index [4] |
| --- | --- | --- | --- | --- |
| VESVFFGGGTPSLASPHTVAAVLE [RSAD1] | 2.97 ± 0.18 | 3.02 ± 0.47 |  |  |
| VFKCVKRLDGCIYAIKRSKKPLAG [WEE1] | 2.23 ± 0.27 | 2.28 ± 0.15 |  |  |
| VGGFDGTTYLKTIEVFDPDANTWR [KLHL20] | 2.91 ± 0.12 | 2.92 ± 0.32 |  |  |
| VGYQSQNISCFFRLVDRDSVWGYD [MYORG] | 2.34 ± 0.85 | 2.34 ± 0.17 |  |  |
| VHRRGEYNVYSTFQSHEPEFDYLK [PPP2R2B] | 2.97 ± 0.11 | 2.88 ± 0.17 |  |  |
| VHTKEQILELLVLEQFLAILPKEL [ZNF396] | 3.22 ± 0.74 | 2.43 ± 0.63 |  |  |
| VIAYDHSRVLLSAIEGIPGSDYVN [PTPRD] | 1.89 ± 0.5 | 1.79 ± 0.28 |  |  |
| VILFSSAVYFAEAEEAESHFSSIP [KCNA1] | 2.37 ± 0.5 | 2.35 ± 0.29 |  |  |
| VIPECAHGGLYKPVQCHPSTGYCW [SMOC2] | 2.38 ± 0.56 | 2.77 ± 0.9 |  |  |
| VISCTIFIVGMVGNATLLRIIYQN [EDNRA] | 3.11 ± 0.14 | 2.29 ± 0.12 |  |  |
| VIVKEGGLKLIQIQDNGTGIRKED [MLH1] | 3.44 ± 0.33 | 3.48 ± 0.41 |  |  |
| VKEKGSTLDLSDLEAEKLVMFQRR [SCD] | 4.06 ± 0.31 | 3.97 ± 0.31 |  |  |
| VKLMMSTLPKSLSLPTTAPSNSSS [MYBL2] | 3.24 ± 0.18 | 3.33 ± 0.24 |  |  |
| VKQEIAEMRIPALNAYMKSLLSLP [NCF4] | 2.27 ± 0.34 | 2.36 ± 0.28 |  |  |
| VLAAKERRCGELKRKLGLTALVGL [TPD52L3] | 2.44 ± 0.24 | 2.07 ± 0.23 |  |  |
| VLKRQRKRRVALSPVTENSTSLSF [MYBL2] | 3.59 ± 0.22 | 3.5 ± 0.14 |  |  |
| VLQDGCVFEKAGVSISVVHGNLSE [CPOX] | 3.21 ± 0.32 | 3.05 ± 0.53 |  |  |
| VLSSEQEFQMFPKSRLSSVSVTYC [ETS2] | 2.21 ± 0.28 | 2.23 ± 0.3 |  |  |
| VMLGAGGVGKSAMTMQFISHRFPE [RIT1] | 2.33 ± 0.34 | 2.12 ± 0.34 |  |  |
| VMYRIGCLRDDVVFFIYLYQRWIY [CLPTM1] | 2.93 ± 0.66 | 2.71 ± 0.32 |  |  |
